For data set [1], the target named is c-Src SH2. The data set can be described thus: SH2 binding enrichment of the phosphorylated peptide, bacterial display (enrichment ratio); higher = better substrate or ligand; peptides without Tyr show the background.
For data set [2], the target named is SHP2-C SH2. The description is as above.
The target of data set [3] is Grb2 SH2 (UniProt P62993). The description is as above.
Data set [4] addresses EPHB1 (UniProt P54762). The data set can be described thus: phosphorylation enrichment, bacterial display (enrichment ratio); higher = better substrate or ligand; peptides without Tyr show the background.
The target of data set [5] is FGFR1 (UniProt P11362). The description is as above.
Data set [6] concerns the target FGFR3 (UniProt P22607). The data set is described as above.
For data set [7], the system named is c-Src. Described as above.
Data set [8] concerns c-Abl (mouse). The description is as above.
Data set [9] deals with EPHB2 (UniProt P29323). The description is as above.
In data set [10] the target is Fyn (UniProt P06241). Described as above.
Data set [11] concerns Fer (mouse). The data set is described as above.
In data set [12] the target is Jak2 (UniProt O60674). The data set is described as above.
The target in data set [13] is MERTK (UniProt Q12866). The data set is described as above.
Data set [14] deals with AncSZ. Described as above.
The target in data set [15] is Hck (UniProt P08631). The data set is described as above.
The target in data set [16] is Fes (UniProt P07332). Described as above.
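Wherever SH2 binding enrichment of the phosphorylated peptide, bacterial display is given: peptide library displayed on the E. coli surface as eCPX fusions, selected cells deep-sequenced, score is each peptide's frequency after selection divided by its frequency in the input.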
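Wherever phosphorylation enrichment, bacterial display is given: 11-residue human phosphosite peptides and single-mutation variants displayed on the E. coli surface, counted by deep sequencing, each peptide's frequency after selection divided by its frequency in the unselected input library; frequency after pTyr selection over input frequency; kinase dosed for 20-30% of maximal phosphorylation in three min.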

Sequence of Fyn (P06241 whole entry, looked up): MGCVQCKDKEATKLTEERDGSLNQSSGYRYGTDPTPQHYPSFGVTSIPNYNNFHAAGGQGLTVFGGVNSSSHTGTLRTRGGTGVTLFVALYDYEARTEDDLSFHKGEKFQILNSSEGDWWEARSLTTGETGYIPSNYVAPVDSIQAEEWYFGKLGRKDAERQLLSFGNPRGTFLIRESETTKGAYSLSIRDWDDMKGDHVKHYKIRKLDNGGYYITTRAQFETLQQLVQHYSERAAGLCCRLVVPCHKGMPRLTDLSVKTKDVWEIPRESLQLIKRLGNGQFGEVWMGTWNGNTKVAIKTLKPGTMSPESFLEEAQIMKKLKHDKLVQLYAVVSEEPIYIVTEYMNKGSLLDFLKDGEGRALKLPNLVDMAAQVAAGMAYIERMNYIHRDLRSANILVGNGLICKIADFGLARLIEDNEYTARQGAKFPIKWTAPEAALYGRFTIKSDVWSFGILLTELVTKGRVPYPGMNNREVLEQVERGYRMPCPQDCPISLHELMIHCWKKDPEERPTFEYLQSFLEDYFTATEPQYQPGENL
Sequence of FGFR1 (P11362 whole entry, looked up): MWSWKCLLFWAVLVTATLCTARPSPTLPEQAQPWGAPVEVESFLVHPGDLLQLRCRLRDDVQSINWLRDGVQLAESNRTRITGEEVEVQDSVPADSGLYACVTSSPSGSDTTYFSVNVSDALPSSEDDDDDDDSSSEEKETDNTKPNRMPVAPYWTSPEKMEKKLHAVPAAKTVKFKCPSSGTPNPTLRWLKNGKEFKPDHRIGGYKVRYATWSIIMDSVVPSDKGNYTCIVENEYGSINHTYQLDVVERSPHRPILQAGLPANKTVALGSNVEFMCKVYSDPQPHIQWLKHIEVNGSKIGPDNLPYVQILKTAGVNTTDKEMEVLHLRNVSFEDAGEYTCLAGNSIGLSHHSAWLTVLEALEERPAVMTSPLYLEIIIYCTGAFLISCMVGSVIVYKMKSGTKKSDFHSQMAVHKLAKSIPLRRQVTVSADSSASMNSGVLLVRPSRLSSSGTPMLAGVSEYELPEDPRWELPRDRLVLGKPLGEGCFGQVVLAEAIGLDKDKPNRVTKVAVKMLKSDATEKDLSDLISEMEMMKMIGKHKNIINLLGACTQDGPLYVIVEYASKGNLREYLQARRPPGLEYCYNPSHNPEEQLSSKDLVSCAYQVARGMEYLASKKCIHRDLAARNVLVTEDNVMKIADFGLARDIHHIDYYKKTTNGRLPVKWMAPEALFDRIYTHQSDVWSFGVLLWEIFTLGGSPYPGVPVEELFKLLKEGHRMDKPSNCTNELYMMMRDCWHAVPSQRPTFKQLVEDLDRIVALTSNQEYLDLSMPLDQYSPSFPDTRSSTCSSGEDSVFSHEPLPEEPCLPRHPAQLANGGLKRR
Sequence of Jak2 (O60674 whole entry, looked up): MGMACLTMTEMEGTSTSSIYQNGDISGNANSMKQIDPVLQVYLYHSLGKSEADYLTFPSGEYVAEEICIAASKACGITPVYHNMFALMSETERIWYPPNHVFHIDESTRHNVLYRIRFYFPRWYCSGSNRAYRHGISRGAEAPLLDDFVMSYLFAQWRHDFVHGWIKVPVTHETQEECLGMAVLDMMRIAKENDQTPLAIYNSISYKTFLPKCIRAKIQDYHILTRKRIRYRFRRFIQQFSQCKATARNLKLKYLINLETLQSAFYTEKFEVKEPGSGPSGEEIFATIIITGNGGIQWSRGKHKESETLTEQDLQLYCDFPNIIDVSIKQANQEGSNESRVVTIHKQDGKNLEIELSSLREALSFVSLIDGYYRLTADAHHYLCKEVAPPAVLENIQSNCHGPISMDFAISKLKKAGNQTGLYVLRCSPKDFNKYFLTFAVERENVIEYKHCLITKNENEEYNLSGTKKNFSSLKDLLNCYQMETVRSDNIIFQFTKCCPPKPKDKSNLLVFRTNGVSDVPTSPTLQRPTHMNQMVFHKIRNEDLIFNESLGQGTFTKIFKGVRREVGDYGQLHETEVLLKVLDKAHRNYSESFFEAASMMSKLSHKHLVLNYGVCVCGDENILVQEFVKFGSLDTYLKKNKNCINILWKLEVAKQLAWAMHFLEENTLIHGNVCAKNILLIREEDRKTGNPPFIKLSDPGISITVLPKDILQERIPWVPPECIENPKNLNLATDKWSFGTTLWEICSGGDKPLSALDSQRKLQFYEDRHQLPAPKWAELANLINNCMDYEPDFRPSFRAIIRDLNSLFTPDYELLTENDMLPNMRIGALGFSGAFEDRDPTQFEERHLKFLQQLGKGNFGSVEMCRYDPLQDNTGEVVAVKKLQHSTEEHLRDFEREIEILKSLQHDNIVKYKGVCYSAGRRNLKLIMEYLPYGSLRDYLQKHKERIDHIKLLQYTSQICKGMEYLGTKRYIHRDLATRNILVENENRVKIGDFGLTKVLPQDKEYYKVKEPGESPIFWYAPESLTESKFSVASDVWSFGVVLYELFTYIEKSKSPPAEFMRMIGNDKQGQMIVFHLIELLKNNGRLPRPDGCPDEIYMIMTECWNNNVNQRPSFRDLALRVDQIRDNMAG
Sequence of Grb2 SH2 (P62993 whole entry, looked up): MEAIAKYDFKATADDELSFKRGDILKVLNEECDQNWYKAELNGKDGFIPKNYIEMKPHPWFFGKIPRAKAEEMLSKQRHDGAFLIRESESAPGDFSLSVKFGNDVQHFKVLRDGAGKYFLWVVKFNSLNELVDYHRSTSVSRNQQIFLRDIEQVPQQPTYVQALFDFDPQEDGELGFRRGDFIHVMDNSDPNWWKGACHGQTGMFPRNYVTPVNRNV
Sequence of EPHB2 (P29323 whole entry, looked up): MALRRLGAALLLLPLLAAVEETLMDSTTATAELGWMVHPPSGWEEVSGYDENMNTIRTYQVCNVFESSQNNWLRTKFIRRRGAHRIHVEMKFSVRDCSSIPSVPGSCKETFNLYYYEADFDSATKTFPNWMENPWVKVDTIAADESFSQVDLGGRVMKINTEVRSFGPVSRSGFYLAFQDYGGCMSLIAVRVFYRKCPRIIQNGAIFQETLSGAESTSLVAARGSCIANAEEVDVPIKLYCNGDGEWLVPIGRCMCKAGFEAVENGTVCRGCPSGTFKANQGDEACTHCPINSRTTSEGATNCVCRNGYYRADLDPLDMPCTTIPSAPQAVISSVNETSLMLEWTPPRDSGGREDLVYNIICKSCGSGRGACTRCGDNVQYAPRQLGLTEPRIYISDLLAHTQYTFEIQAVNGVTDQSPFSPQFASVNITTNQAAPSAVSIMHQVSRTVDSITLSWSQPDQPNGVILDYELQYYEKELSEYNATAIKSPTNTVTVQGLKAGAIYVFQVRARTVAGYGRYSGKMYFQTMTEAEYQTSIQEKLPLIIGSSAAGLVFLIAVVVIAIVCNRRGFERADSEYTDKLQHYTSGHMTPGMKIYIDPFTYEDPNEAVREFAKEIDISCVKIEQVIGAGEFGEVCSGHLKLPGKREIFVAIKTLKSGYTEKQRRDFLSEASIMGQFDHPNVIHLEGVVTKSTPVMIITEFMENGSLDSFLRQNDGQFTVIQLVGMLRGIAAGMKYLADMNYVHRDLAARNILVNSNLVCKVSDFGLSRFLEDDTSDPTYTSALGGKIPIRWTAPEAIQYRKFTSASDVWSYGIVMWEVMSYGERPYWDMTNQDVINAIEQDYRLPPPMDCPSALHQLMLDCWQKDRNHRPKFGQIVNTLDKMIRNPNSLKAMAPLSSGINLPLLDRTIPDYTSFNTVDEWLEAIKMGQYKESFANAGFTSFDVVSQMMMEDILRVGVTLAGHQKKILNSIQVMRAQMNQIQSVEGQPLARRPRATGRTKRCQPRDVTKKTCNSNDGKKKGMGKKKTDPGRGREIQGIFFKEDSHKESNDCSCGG
Sequence of Hck (P08631 whole entry, looked up): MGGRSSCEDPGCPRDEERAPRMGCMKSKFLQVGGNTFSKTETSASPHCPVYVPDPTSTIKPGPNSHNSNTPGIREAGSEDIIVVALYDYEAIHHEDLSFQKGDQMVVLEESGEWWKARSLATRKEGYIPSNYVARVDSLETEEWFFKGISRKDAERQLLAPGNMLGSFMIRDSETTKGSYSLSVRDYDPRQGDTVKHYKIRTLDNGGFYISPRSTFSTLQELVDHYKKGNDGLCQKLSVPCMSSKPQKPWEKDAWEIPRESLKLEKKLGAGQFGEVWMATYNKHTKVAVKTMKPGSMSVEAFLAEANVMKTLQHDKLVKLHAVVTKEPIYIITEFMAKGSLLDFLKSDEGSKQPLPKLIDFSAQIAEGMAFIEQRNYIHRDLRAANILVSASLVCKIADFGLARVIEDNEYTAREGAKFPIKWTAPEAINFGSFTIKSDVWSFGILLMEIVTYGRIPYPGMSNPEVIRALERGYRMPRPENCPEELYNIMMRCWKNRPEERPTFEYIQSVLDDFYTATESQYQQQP

Consider RPSRWYQFRVA [ANOS1_Y259], for which the SH2 binding enrichment in data set [1] is 0.541; in [2] it was 0.568; in [3], 0.771. Also, the phosphorylation enrichment in data set [4] was found to be 0.834; in data set [5] it was 0.748; in [6], 0.887; in [7], 0.756; in [8], 0.955; in data set [9], 0.717. Moreover, the phosphorylation enrichment in data set [10] worked out at 1.01; in data set [11], 1.03; in [12], 0.894; in data set [13], 0.699; in data set [14], 1.22; in data set [15], 0.642. The phosphorylation enrichment in data set [16] is 1.55.
With RPYRPYIIRGM [LRP5_Y1531], the results for the SH2 binding enrichment in [1], in [2] and in [3] were 0.574, 0.557 and 0.759, respectively. Besides, the phosphorylation enrichment was 0.531 in data set [4]; 0.748 in data set [5]; 0.845 in data set [6]; 0.917 in data set [7]; 0.587 in data set [8]; 0.842 in data set [9]. The phosphorylation enrichment was 0.987 in [10]; 0.536 in data set [11]; 0.826 in [12]; 0.852 in data set [13]; 0.949 in data set [14]; 1.04 in [15]. Also, in data set [16], the phosphorylation enrichment was 1.4.
RREGVYRNNID [PTEN_Y46_L42R]: the SH2 binding enrichment in [1] was 0.436; in [2], 0.451; in data set [3] it was 0.621. Further, the phosphorylation enrichment in data set [4] came out at 0.324; in data set [5], 0.392; in data set [6], 0.516; in [7], 0.8; in data set [8], 0.783; in [9] it was 0.517. The phosphorylation enrichment worked out at 0.664 in data set [10]; 0.469 in data set [11]; 0.778 in data set [12]; 0.752 in data set [13]; 0.55 in [14]; 0.461 in data set [15]. Besides, the phosphorylation enrichment in data set [16] is 0.925.
Take RRESQYQENRG [LRCH3_Y354]: the SH2 binding enrichment in data set [1] came to 0.49; in data set [2], 0.624; in [3] it was 0.982. The phosphorylation enrichment turned out to be 0.431 in data set [4]; 0.479 in [5]; 0.663 in data set [6]; 0.475 in data set [7]; 0.73 in data set [8]; 0.494 in data set [9]. For the same sequence, the phosphorylation enrichment amounted to 0.637 in [10]; 0.563 in data set [11]; 0.582 in data set [12]; 0.472 in data set [13]; 0.835 in data set [14]; 0.503 in data set [15]. In addition, in data set [16], the phosphorylation enrichment was 0.571.
As to RRFVFYFSFLL [PTEN_Y177_YF], the figures for the SH2 binding enrichment in [1], in data set [2] and in data set [3] were 0.426, 0.688 and 0.752, respectively. Further, the phosphorylation enrichment came to 0.654 in data set [4]; 0.938 in [5]; 0.608 in data set [6]; 0.611 in data set [7]; 0.502 in data set [8]; 0.655 in [9]. Moreover, the phosphorylation enrichment amounted to 0.741 in data set [10]; 0.829 in data set [11]; 0.622 in [12]; 0.593 in data set [13]; 1.06 in [14]; 0.899 in [15]. For the same sequence, in data set [16], the phosphorylation enrichment came out at 0.744.
As to RRIHSYRSHLW [VHL_Y112_G114S], the figures for the SH2 binding enrichment in data set [1], in [2] and in data set [3] were 0.57, 0.822 and 0.574, respectively. Moreover, the phosphorylation enrichment in [4] was 0.81; in [5] it was 1.25; in data set [6] it was 0.778; in [7], 0.439; in data set [8], 0.395; in [9] it was 2.19. The phosphorylation enrichment in data set [10] came out at 0.833; in [11], 0.507; in data set [12], 0.487; in data set [13] it was 0.718; in data set [14], 0.576; in data set [15], 0.601. In data set [16], the phosphorylation enrichment came to 1.17.
As for RRNVYYYSYLL [PTEN_Y177_Y174N], the SH2 binding enrichment in data set [1] amounted to 0.599; in data set [2], 0.641; in data set [3] it was 0.565. Besides, the phosphorylation enrichment was determined as 1.74 in data set [4]; 6.81 in [5]; 4.21 in [6]; 1.79 in [7]; 0.616 in [8]; 0.707 in [9]. Also, the phosphorylation enrichment amounted to 1.14 in [10]; 0.556 in data set [11]; 2.42 in [12]; 8.2 in data set [13]; 1.16 in data set [14]; 1.13 in data set [15]. Moreover, in data set [16], the phosphorylation enrichment came to 0.796.
With RSFPSYFTSHV [NEFL_Y442_YF], the SH2 binding enrichment in [1] was determined as 0.73; in data set [2], 1.08; in [3], 0.888. Further, the phosphorylation enrichment in data set [4] stood at 0.672; in [5], 0.899; in [6] it was 0.634; in data set [7], 0.481; in [8], 0.772; in data set [9], 0.761. Further, the phosphorylation enrichment came out at 0.65 in data set [10]; 0.525 in [11]; 1.8 in data set [12]; 0.629 in data set [13]; 0.869 in data set [14]; 0.477 in data set [15]. Besides, in data set [16], the phosphorylation enrichment was 0.887.
RSFPSYYTSHV [NEFL_Y442]: the SH2 binding enrichment in data set [1] stood at 1.28; in data set [2], 1.11; in [3], 1.17. The phosphorylation enrichment was 2.37 in [4]; 2.19 in data set [5]; 1.28 in [6]; 1.12 in [7]; 1.02 in data set [8]; 1.34 in [9]. Moreover, the phosphorylation enrichment amounted to 0.775 in [10]; 0.65 in data set [11]; 3.72 in data set [12]; 7.71 in data set [13]; 1.05 in [14]; 1.1 in [15]. In data set [16], the phosphorylation enrichment is 1.05.
